± gives the standard deviation.

The nature of the data set: protein stability index of a GFP-peptide fusion (GPS, HEK-293T) (PSI 1-6); higher = more stable.
Setting [1] is: treatment: DMSO, c terminus: a fixed tail appended.
[2] abbreviates: treatment: MLN4924 1 uM, 8 h, c terminus: a fixed tail appended.
[3] abbreviates: treatment: DMSO, c terminus: native.
Setting [4] is: treatment: MLN4924 1 uM, 8 h, c terminus: native.
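Note: 24-mer peptide tiles fused after GFP, lentivirally expressed, FACS-sorted into six equal bins by GFP/DsRed ratio, decoded by Illumina sequencing, PSI is the read-weighted mean bin number.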

In the case of VTSFDSVVPEKLDDLVPKGKKFLL [ALG2], the protein stability index was 3.32 ± 0.25 under setting [1] and 3.31 ± 0.16 under setting [2].

Regarding VVEKRLCMYEHGEDTHQSPEPEDE [RSPH3], the protein stability index was 5.43 ± 0.43 under setting [1] and 5.58 ± 0.23 under setting [2].

VVETVFFLTSRTRALLRRFPRMLL [ZSWIM9] gave a protein stability index under setting [1] of 2.89 ± 0.095 and a protein stability index under setting [2] of 2.87 ± 0.3.

WAVVTMTTVGYGDMKPITVGGKIV [KCNA4] yielded a protein stability index under setting [1] of 2.84 ± 0.38 and a protein stability index under setting [2] of 2.72 ± 0.55.

As for WDKHACPAYVGPEILSSRASYSGK [TRIB3], the protein stability index stood at 3.53 ± 0.096 under setting [1] and 3.5 ± 0.24 under setting [2].

As for WERVHLIVAGGYDERVLENVEHYQ [ALG2], the protein stability index stood at 2.33 ± 0.19 under setting [1] and 2.48 ± 0.3 under setting [2].

WESRTGDQYSYSSLVMGSQTESAL [LCOR]: the protein stability index by setting is: under setting [1], 3.44 ± 0.27; under setting [2], 3.51 ± 0.46.

Regarding WQSESLPVSLSASQSWHTESLPVS [BCL2L13], the protein stability index was found to be 3.26 ± 0.23 under setting [1] and 3.35 ± 0.14 under setting [2].

WRITNAKGDVEEVQGPGVVGEFPI [FBXO3]: the protein stability index by setting is: under setting [1], 3.75 ± 0.34; under setting [2], 3.84 ± 0.48.

With WTLYKILDSCKQLTLAQGAGEEDP [SMG5], the protein stability index runs as follows: under setting [1], 2.32 ± 0.18; under setting [2], 2.56 ± 0.28.

As for YCSIKCQQEHWHAEHKRTCRRKR [ZMYND11], the protein stability index runs as follows: under setting [3], 2.92 ± 0.61; under setting [4], 3.51 ± 0.87.

YDGMLSDVQSMPKTGILILILSII [MAGEA10]: the protein stability index runs as follows: under setting [1], 2.36 ± 0.78; under setting [2], 2.12 ± 0.48.

As to YDGRSRLSSVECLDYTADEDGVWY [KLHL12], the protein stability index turned out to be 3.55 ± 0.4 under setting [1] and 3.76 ± 0.35 under setting [2].

YEDTNGQPQALLVDGDQSKILISG [TNXB]: the protein stability index under setting [1] worked out at 4.99 ± 0.13 and the protein stability index under setting [2] was 4.73 ± 0.12.

As for YEKKFDTFIPLEPLPQIPNLPFWV [SPATS1], the protein stability index came out at 2.24 ± 0.31 under setting [1] and 1.95 ± 0.18 under setting [2].

For YFSTPQTMDLFLNYSMNMQPEDV [NANOGP8], the protein stability index under setting [3] came out at 2.34 ± 0.21 and the protein stability index under setting [4] is 2.27 ± 0.55.

For YFYPRGGGSGGGAGGAGGGVTEEQ [JUNB], the protein stability index is, setting by setting: under setting [1], 5.01 ± 0.3; under setting [2], 4.89 ± 0.41.

Regarding YHNSPAYLAYINAKSRAEAALEEE [SMARCE1], the protein stability index by setting is: under setting [1], 2.53 ± 0.54; under setting [2], 4.01 ± 0.38.

Sequence YISLLLRAEPYPTSRFGSQCMQPN [NR2F2] had a protein stability index under setting [1] of 2.55 ± 0.5 and a protein stability index under setting [2] of 2.43 ± 0.39.

Consider YKIVTAREWRCCPGHSGVSCEEVA [EMID1], for which the protein stability index came out at 2.49 ± 0.32 under setting [1] and 2.39 ± 0.41 under setting [2].

Sequence YLPPERIREKSRLFDTKHDVYSFA [RIPK4] came in with a protein stability index under setting [1] of 2.62 ± 0.24 and a protein stability index under setting [2] of 2.72 ± 0.25.

Regarding YLYTYDSQITDSEHNSSLVSQQTG [ZNF8], the protein stability index reads like this: under setting [1], 3.73 ± 0.2; under setting [2], 3.71 ± 0.11.

Turning to YLYYDPDYSFLSLGVYSALREIAF [ATE1], the protein stability index runs as follows: under setting [1], 2.92 ± 0.2; under setting [2], 2.67 ± 0.24.

Turning to YMGKGSMTGLALKHMFERSFTQGE [MATN2], the protein stability index amounted to 2.37 ± 0.23 under setting [1] and 3.07 ± 0.18 under setting [2].

Consider YNQQQALIDQRYFQVLCSINSIIH [CEP70], for which the protein stability index by setting is: under setting [1], 2.32 ± 0.34; under setting [2], 2.24 ± 0.23.

The sequence YPPQMGEEYSQIIYSTKLYRFFKY [BTBD10] had a protein stability index under setting [1] of 2.88 ± 0.71 and a protein stability index under setting [2] of 2.73 ± 0.83.

Turning to YPSYKVREKIETVKYPTYPEAEK [FUT8], the protein stability index runs as follows: under setting [3], 4.07 ± 0.19; under setting [4], 4.16 ± 0.57.

On to YRFRMKCHLCVNYIEMQTDPANCD [YJU2B], for which the protein stability index by setting is: under setting [1], 2.3 ± 0.31; under setting [2], 2.26 ± 0.17.

Consider YRWHINFTTFFIDCMAALGLAYDR [SCD], for which the protein stability index turned out to be 2.99 ± 0.65 under setting [1] and 2.61 ± 0.64 under setting [2].

For the sequence YSAIDRVKSRGKRLALEKVPKVGQ [PI4K2A], the protein stability index runs as follows: under setting [1], 4.04 ± 0.33; under setting [2], 4.12 ± 0.27.

Take YSDRTNIISKPVPQTLIMAYDYAK [FEM1C]: the protein stability index runs as follows: under setting [1], 2.36 ± 0.24; under setting [2], 2.49 ± 0.41.

Take YSENAPFHLSLFQGWMNLLNMAKK [PLD5]: the protein stability index by setting is: under setting [1], 2.08 ± 0.61; under setting [2], 2.23 ± 0.13.

For the sequence YSFGSGGGYGSSFGGVDGLLAGGE [KRT17], the protein stability index under setting [1] was found to be 2.84 ± 0.13 and the protein stability index under setting [2] was determined as 2.9 ± 0.098.

Regarding YSKTWTKQPDLTMVRKIGCYAAMK [GAN], the protein stability index came to 2.92 ± 0.96 under setting [1] and 2.42 ± 0.19 under setting [2].

With YSPAVMNYSIPSNVTNLEGGPGRQ [ESR2], the protein stability index was determined as 3.8 ± 0.4 under setting [1] and 3.75 ± 0.4 under setting [2].

Regarding YSYVVSRPQPRGLLGWGYYLIMLP [FAF2], the protein stability index came to 2.89 ± 0.57 under setting [1] and 2.16 ± 0.37 under setting [2].

On to YTRLGEMNNAVRNLQELLELDSSS [CEP70], for which the protein stability index turned out to be 3.77 ± 0.22 under setting [1] and 4.06 ± 0.17 under setting [2].

For YTSPDKLKDIFMFITRQLKGLEDT [PDS5B], the protein stability index under setting [1] came to 3.62 ± 0.19 and the protein stability index under setting [2] came to 3.84 ± 0.3.

YVSLGRLGAAKGALHPGCFAPLHP [CEBPB]: the protein stability index runs as follows: under setting [1], 3.44 ± 0.94; under setting [2], 2.73 ± 0.17.

Regarding YYPRVQHYRELLDSLPMDAYTHGC [GDAP1], the protein stability index runs as follows: under setting [1], 2.21 ± 0.17; under setting [2], 2.32 ± 0.23.

Consider YYRGFTLFQTHENREHLVMMEKIL [CLK3], for which the protein stability index by setting is: under setting [1], 2.31 ± 0.31; under setting [2], 2.34 ± 0.37.
